Source: the supplement of paper PMC9170038

Each sequence was assayed on MS2 coat protein (assay: apparent KD of MS2 coat protein; higher = weaker reporter binding). Conditions: Eterna round: R107; input ligand: theophylline 2 mM.
Outline: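 The buffer was 100 mM Tris-HCl pH 7.5 with 80 mM KCl and 4 mM MgCl2, used without or with constant ligand. In it, RNA switches transcribed on-chip from Illumina sequencing clusters were titrated with SNAP-549-labelled MS2 coat protein in twofold steps from 0.7 or 1.5 nM to 3 µM. Apparent KD for each design is the median of its normalised cluster binding-curve fits.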

Sequence | apparent KD of MS2 coat protein [nM]
UGUAUGUGAUUUGAUACCAGACCAGCGGGUGUUGCAUGAGGAUCACCCAUGUAGGUUUGGGUCCCUUGGCAGCAAAUCGCAUACU [SS Theo B #24 Ms18] | 127
GUAUUAACAAAAGUUGAUACAGUGGGUGAACGAGGACCGGUACGGCCGCCACUCGGACAUGAGGAUCACCCAUGUCCAUGUGAAA [AstrosExyTryA#12] | 17.2
GUACAUGAGGAUCACCCAUGUAUAGUUGAAGGAGCGACCGGUGGGUCAGGUAGGUCGCAGCACAUGGCGUCAACCCGUGUAUGCC [#1 Exclusion - Arginine A Attempt #26 (Inspired by Pi)] | 22.1
CGCAACCCACAUGAGGAUCACCCAUGUGAAGGAGCGGCGAAUAAGCCAGGUAGGUCGCGCAUGAAUAAAUCAUGUAGGAAGCUAA [XArg-A 8 V1] | 12.7
GAAGGAACCGGAAGGAGCGGGUCCUUAGCCACUACAUGAGGAUCACCCAUGUCCGGGAGGUCCCAGGUAGGUCGCCGGUCUUAAA [Gelece] | 934
ACCUGUACGAAAAGUGCAGGACAUGAAUAACGAGGACCGGUACGGCCGCCACUCGGGUAAUAACCUGAGGAUCACCCGGGUCAUG [TrypAS 6 #AlternativeMS2 #Zipper #StaticStem] | 249
CGGUACAUGAGGAUCACCCAUGUGUCGGAUACCAGAGAGCCGGCUCUCCCUUGGCAGCUGGUGCGACAUGAGGAUCACCCAUGUG [Exclusion Theophylline A GF19] | 67.4

Same assay, conditions: Eterna round: R107; input ligand: tryptophan 2.4 mM

Sequence | apparent KD of MS2 coat protein [nM]
GGAUAGGACACGGCCGCCACUAGCUAGGAUACUAGCAACAUUUCCUCACCUGAGGAUCACCCUGGUAGGACCGGGUGUCCUAUCG | 394
CUCAUCCACGCGGCCGCCACUAUAUUGUGGUGUGGGUGUGACGUAUUACAUGAGGAUCACCCAUGUAGGACCGGGCGUGGAUGAG [Stork] | 534
GCUGUACCAUGAAGGAGCGCUCACGCAGUUGCGGGUACAUGAGGAUCACCCAUGUUGGGUGAGCAGGUAGGUCGCAUGGUACAGC [SSAB #17] | 215
GCCUCCAGCCGAAGGAGCGCUAGAAGGUGACAUGAGGAUCACCCAUGUGUGUGAUGUGGCUAGCAGGUAGGUCGCGGAGGAGGCA [Exclusion - Arginine B (Freestyle 22)] | 74.8
UGGUACAUGGCGGCCGCCACUUCACGUAAAAUAAAAGCGUGAGGAUCACCCAUGCAAUAAGUUGGGAGGACCGGGUCAUGUACCU | 244
AUAACAUGAGGAUCACCCAUGUAAGCAGAUACCAGCUAGGAAACUAGCCCUUGGCAGCUGCAAGGUGAUCCUAAUGCAGCUGCAA [(M1)-(M2)-(T1)-(T2)-(M)'-(T)'_Design3] | 158
AAACGCCACGGAAGGAGCGACAUGAGGAUCACCCAUGUAGUUUUGGCGGAUGCACCCUCCUGUCAGGUAGGUCGCCGUGCGAUAA [XArg-B26] | 33.4
AAAAUCCUACCUGAGGAUCACCCUGGUGAAGGAGCGCCCGAAAGGGCAGGUAGGUCGCACCUGAGGAUCACCCUGGUACCUAAAA [ArgAX 29 #DoubleMs2 #OpenEnded #AlternativeMS2] | 61.8
UGGCAAGAGGGAAGGAGCGUCAGCUGAGUCACAUGAGGAUCACCCAUGUCGCACAUAGUGUGACAGGUAGGUCGCCCUCUACCCU [Rearian] | 148
AUAACAUGAGGAUCACCCAUGUAAGCAGAUACCAGCUAGGAAACUAGCCCUUGGCAGCUGCAUUCCUCAUGUAGGUAUCUGCUAA [(M1)-(M2)-(T1)-(T2)-(M)'-(T)'_Design4] | 16.1
UGGUGUAGGGUAAAUAGGAUUAGUACAGAAGGAGCGCGAAUAAACGCAGGUAGGUCGCUGGAAUACAUGAGGAUCACCCAUGUUC [Same State Arginine A GF 25] | 26
GACAUGAGGAUCACCCAUGUACCGCGAGAAGGAGCGCGGAUAAACGCAGGUAGGUCGCUCGUGGGCUUUUAUUCAAUCGAAAGCU [Zaesar] | 48
AAUUCCUCACAUGAGGAUCACCCAUGUGAAGGAGCGCCGAAUAAGGCAGGUAGGUCGCACAUGGAAACCGCUGCGAAAGCAGCAA [MAT - Exclusion Arginine A - Mod of Eli - D25] | 24.5
GGGUAUGAUCCGGAUACCAGCGAACAUGAGGAUCACCCAUGUGACCUAAGAUAGGCUCUACGCCCUUGGCAGCCGCGAUCGCGUU [Same State Theophylline B GF8] | 29
GUCCUCAGCCGAAGGAGCGCUAGAAGGUGACAUGAGGAUCACCCAUGUGUGUGAUGUGGCUAGCAGGUAGGUCGCGGAGAGGAUU [Exclusion - Arginine B (Freestyle 17)] | 78.8
AAGCUGCCAAGAAGGUGAUCCAAAUGUGAUACCAGCUAGGAAACUAGCCCUUGGCAGCACAUGAGGAUCACCCAUGUAAUAAUAA [(T)'-(M)'-(T1)-(T2)-(M1)-(M2)_Design1_2/19/17] | 48.3
CCUGCUACGGGAAACCGUAGCAGGAAUGAUACCAGUAGGAAAGACUACCCUUGGCAGCAUGGGAAACAUGAGGAUCACCCAUGUU [SSThA NP+V+V2 #7 Same Structure] | 50.8

Sequence | apparent KD of MS2 coat protein [nM]
UUUGCACAUGAGGAUCACCCAUGUACAGAUACCAGCCUCAUCUACGGCCCUUGGCAGCUGAGAUAAUGGUGACGUGAUGGGCUUU [Edaniser] | 11.6
AGUCUUGAACGAAGGAGCGACGUACAUGAGGAUCACCCAUGUGGGAGCGAAAGCUCCUAACGUCAGGUAGGUCGCGUUCGAGACA [Omei Arginine B SS A v1] | 18.6
GUAAUUAUAAGAAGGAGCGUCGAAAAUGGGUAAACAUGAGGAUCACCCAUGUAAAGGGAACGACAGGUAGGUCGCUUAUGAUUAC [AstromonsSSArgB#22] | 202
UGACAUUGCUCAGAUACCAGACAGGAGGAUCACUCCUGUGCCAACAAGUACAAAAUAAAUGUCCCUUGGCAGCUGAGCAAUGUCU [TheoBX 25 #MS2Left #AlternativeMS2 #Theo22] | 49
UUGUUGUUUGGAAGGAGCGUGUAUGAUUUAGAACAUGAGGAUCACCCAUGUUGGAGGAUAGCACAGGUAGGUCGCCGGGUGGUGG [11.X] | 15
UGUAUGUGAUUUGAUACCAGACCAGCGGGUGUUGCAUGAGGAUCACCCAUGUAGGUUUGGGUCCCUUGGCAGCAAAUCGCAUACU [SS Theo B #24 Ms18] | 523
ACAAGUCCUCAUGAUACCAGCGAUGAGACAUAGUCUCAACAUGAGGAUCACCCAUGUAUUCGCCCUUGGCAGCAUACGGUUUUUG [Arleer] | 517
GUACAUGAGGAUCACCCAUGUAUAGUUGAAGGAGCGACCGGUGGGUCAGGUAGGUCGCAGCACAUGGCGUCAACCCGUGUAUGCC [#1 Exclusion - Arginine A Attempt #26 (Inspired by Pi)] | 17.2
UAUAUAAUAACAGAUACCAGCGUGUUAUAAAACAUGAGGAUCACCCAUGUAGUGAUCAAGCGCCCUUGGCAGCUGGUAUUAUAUA [7.A] | 47.6
AGACAUGAGGAUCACCCAUGUAGUACGGAUACCAGAUCCAGAUGCGUCCCUUGGCAGCUGUAGUACAGCGUUACAUCGCUCAUAG [Exclusion - Theophylline A (Freestyle 25)] | 36.4
CGGGAACGAUAUGAUACCAGCCUGCGAAAGAAUGCUUAGUACAUGAGGAUCACCCAUGUAGGCCCUUGGCAGCAUCGACUCAAGU [theeternabot_exclusion_MS2_Theo_B_4] | 13.2
CGCAACCCACAUGAGGAUCACCCAUGUGAAGGAGCGGCGAAUAAGCCAGGUAGGUCGCGCAUGAAUAAAUCAUGUAGGAAGCUAA [XArg-A 8 V1] | 9.79
GAAGGAACCGGAAGGAGCGGGUCCUUAGCCACUACAUGAGGAUCACCCAUGUCCGGGAGGUCCCAGGUAGGUCGCCGGUCUUAAA [Gelece] | 267
ACCUGUACGAAAAGUGCAGGACAUGAAUAACGAGGACCGGUACGGCCGCCACUCGGGUAAUAACCUGAGGAUCACCCGGGUCAUG [TrypAS 6 #AlternativeMS2 #Zipper #StaticStem] | 27.5
CGGUACAUGAGGAUCACCCAUGUGUCGGAUACCAGAGAGCCGGCUCUCCCUUGGCAGCUGGUGCGACAUGAGGAUCACCCAUGUG [Exclusion Theophylline A GF19] | 53.3
GCACGACAUGAGGAUCACCCAUGUGCAGAUACCAGUAGGAUAUCCUACCCUUGGCAGCUGAGUGGAUCCGGAGGACCAUGGGUAA [Same State Theophylline A GF8] | 34.7
